# T1: biotinylated renin D226A mutant (human, biotin (NHS-PEG4-Biotin), preferentially on N-terminal alpha-amino groups)
# T1 construct: human renin D226A, as m1; source: HEK293EBNA cells, purified; biotinylated with EZ-link-NHS-PEG4-Biotin at pH 6.2
# T1 sequence (P00797 67-406 with D226A, looked up): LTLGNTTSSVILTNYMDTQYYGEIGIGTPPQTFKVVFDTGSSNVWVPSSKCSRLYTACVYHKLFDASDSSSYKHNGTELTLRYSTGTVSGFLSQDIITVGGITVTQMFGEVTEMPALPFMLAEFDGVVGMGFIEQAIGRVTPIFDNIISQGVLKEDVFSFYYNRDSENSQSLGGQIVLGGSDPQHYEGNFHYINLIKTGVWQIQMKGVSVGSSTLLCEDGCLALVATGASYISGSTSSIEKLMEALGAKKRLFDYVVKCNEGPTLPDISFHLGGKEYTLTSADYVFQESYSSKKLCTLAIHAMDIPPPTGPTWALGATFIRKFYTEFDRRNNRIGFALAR
# B1: fully glycosylated WT human angiotensinogen (AGT) (natural protein)
# chain: DRVYIHPFHLVIHNESTCEQLAKANAGKPKDPTFIPAPIQAKTSPVDEKALQDQLVLVAAKLDTEDKLRAAMVGMLANFLGFRIYGMHSELWGVVHGATVLSPTAVFGTLASLYLGALDHTADRLQAILGVPWKDKNCTSRLDAHKVLSALQAVQGLLVAQGRADSQAQLLLSTVVGVFTAPGLHLKQPFVQGLALYTPVVLPRSLDFTELDVAAEKIDRFMQAVTGWKTGCSLMGASVDSTLAFNTYVHFQGKMKGFSLLAEPQEFWVDNSTSVSVPMLSGMGTFQHWSDIQDNFSVTQVPFTESACLLLIQPHYASDLDKVEGLTFQQNSLNWMKKLSPRTIHLTMPQLVLQGSYDLQDLLAQAELPAILHTELNLQKLSNDRIRVGEVLNSIFFELEADEREPTESTQQLNKPEVLEVTLNRPFLFAVYDQSATALHFLGRVANPLSTA
# modifications: N-linked glycans (fully glycosylated; glycosylation sites Asn14, Asn137, Asn271, Asn295)
# B2: spent AGT (human AGT without the N-terminal 10-residue angiotensin I peptide) (domain or fragment)
# chain: VIHNESTCEQLAKANAGKPKDPTFIPAPIQAKTSPVDEKALQDQLVLVAAKLDTEDKLRAAMVGMLANFLGFRIYGMHSELWGVVHGATVLSPTAVFGTLASLYLGALDHTADRLQAILGVPWKDKNCTSRLDAHKVLSALQAVQGLLVAQGRADSQAQLLLSTVVGVFTAPGLHLKQPFVQGLALYTPVVLPRSLDFTELDVAAEKIDRFMQAVTGWKTGCSLMGASVDSTLAFNTYVHFQGKMKGFSLLAEPQEFWVDNSTSVSVPMLSGMGTFQHWSDIQDNFSVTQVPFTESACLLLIQPHYASDLDKVEGLTFQQNSLNWMKKLSPRTIHLTMPQLVLQGSYDLQDLLAQAELPAILHTELNLQKLSNDRIRVGEVLNSIFFELEADEREPTESTQQLNKPEVLEVTLNRPFLFAVYDQSATALHFLGRVANPLSTA
# modifications: glycosylated
# Assays:
# [1] = target: T1, biotinylated renin D226A mutant; assay: BLI; FortéBio Octet Red96; biotinylated renin D226A (2.5 μg/ml) loaded on streptavidin biosensors; 2-fold dilutions of AGT in 10 mM Tris, pH 7.4, 0.15 M NaCl, 1% BSA; 1:1 binding model, global fit; KD = koff/kon; three independent assays; conditions: both partners purified
# [2] = target: T1, biotinylated renin D226A mutant; assay: BLI; as a1 (biotinylated renin D226A on streptavidin biosensors), but KD from steady-state analysis because on and off rates were very fast; conditions: both partners purified
Binder,Kd [1] [µM],koff [1] [s⁻¹],kon [1] [M⁻¹ s⁻¹],Kd [2] [µM]
B1,0.0203,0.000437,21500,–
B2,–,–,–,13

# — article PMC6378967, “Structural basis for the specificity of renin-mediated angiotensinogen cleavage” (The Journal of Biological Chemistry, 2018)
